Assay [1] concerns the target T1, human B7H3 (B73-H52E2, Acro Biosystem) (human, UniProt Q5ZPR3-2 29-245).
T1 construct: also called CD276; antigen B
T1 sequence (looked up): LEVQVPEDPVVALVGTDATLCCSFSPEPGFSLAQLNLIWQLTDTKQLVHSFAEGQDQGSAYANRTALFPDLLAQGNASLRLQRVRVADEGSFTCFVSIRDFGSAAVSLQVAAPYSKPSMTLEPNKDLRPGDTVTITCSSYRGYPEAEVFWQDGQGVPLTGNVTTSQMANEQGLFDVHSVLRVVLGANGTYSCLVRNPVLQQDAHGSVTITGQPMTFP
Nature of the assay: BLI (Octet Red96e), antibody captured on AHC sensor, human B7H3 100 nM in solution. In general terms: BLI is a label-free optical method that tracks binding on a fibre tip over time.

For assay [2], the target named is T2, human EGFR (EGR-H5222, Acro Biosystem) (human, UniProt P00533 25-645).
T2 construct: Bought reagent; also called antigen A
Nature of the assay: BLI (Octet Red96e), antibody captured on AHC sensor, human EGFR 100 nM in solution.

The target of assay [3] is EGFR Del19 (amplified) on H1650 cells (UniProt P00533 25-1210). Nature of the assay: cell-based or functional assay.
For assay [4], the target named is EGFR L858R/T790M on H1975 cells (UniProt P00533 25-1210, limits assumed). The assay can be described thus: cell-based or functional assay.
Assay [5] has as its target EGFR R521K on HT-55 and LS180 cells (UniProt P00533 25-1210, limits assumed). Nature of the assay: cell-based or functional assay.
In assay [6] the target is EGFR R521K/Y1069C on CCK-81 cells (UniProt P00533 25-1210, limits assumed). The assay can be described thus: cell-based or functional assay.
Assay [7] has as its target EGFR, wild type, on tumour cells (H508, TE-1, Colo-680N, H292, H322, H358; amplified in SK-MES-1 and H1703) (UniProt P00533 25-1210, limits assumed). Nature of the assay: cell-based or functional assay.

B1: Hz5C2.9/Zalu bsAb bispecific antibody molecule (bispecific antibody, human IgG1, kappa)
heavy 1: not shown
light 1: not shown
heavy 2: not shown
light 2: EIVLTQSPGTLSLSPGERATLSCRSSQSLVHSQGITYLDWYQQKPGQAPRLLIYKVSNRFSGIPDRFSGSGSGTDFTLTISRLEPEDFAVYYCSQGTHVPPWTFGGGTKVEIKRTVAAPSVFIFPPSDEQLKSGTASVVCLLNNFYPREAKVQWKVDNALQSGNSQESVTEQDSKDSTYSLSSTLTLSKADYEKHKVYACEVTHQGLSSPVTKSFNRGEC
notes: IgG1-like, four polypeptide chains, Innobody heterodimer Fc mutations; low fucose (GlymaxX)
Turning to B1, in assay [1], binding was put at a Kd of 8.25 nM, the koff turned out to be 0.00352 s⁻¹ and the kon was 427000 M⁻¹ s⁻¹. Further, in assay [2], binding was put at a Kd of 4.69 nM, the koff turned out to be 0.00124 s⁻¹ and the kon is 264000 M⁻¹ s⁻¹.

B2: Hz19A2.25/Zalu bsAb bispecific antibody molecule (bispecific antibody, human IgG1, kappa)
heavy 1: not shown
light 1: not shown
heavy 2: not shown
light 2: EIVLTQSPATLSLSPGERATLSCSVSSSVQSNYLYWYQQKPGQAPRLLIYGTSNLASGIPARFSGSGSGTDFTLTISSLEPEDFAVYYCYQWSSYPFTFGQGTKLEIKRTVAAPSVFIFPPSDEQLKSGTASVVCLLNNFYPREAKVQWKVDNALQSGNSQESVTEQDSKDSTYSLSSTLTLSKADYEKHKVYACEVTHQGLSSPVTKSFNRGEC
notes: as for B1
In assay [1], B2 registered a Kd of 6.73 nM, a koff of 0.00219 s⁻¹ and a kon of 326000 M⁻¹ s⁻¹. In assay [2], the Kd came to 4.19 nM, the koff is 0.00121 s⁻¹ and the kon was 289000 M⁻¹ s⁻¹.

B3: Hz20G5.26/Zalu bsAb bispecific antibody molecule (bispecific antibody, human IgG1, kappa)
heavy 1: not shown
light 1: not shown
heavy 2: not shown
light 2: DIQLTQSPSFLSASVGDRVTITCSASSSVSYIHWYQQKPGKAPKRWIYDTSRLASGVPSRFSGSGSGTEFTLTISSLQPEDFATYYCQQWSSAPLTFGGGTKVEIKRTVAAPSVFIFPPSDEQLKSGTASVVCLLNNFYPREAKVQWKVDNALQSGNSQESVTEQDSKDSTYSLSSTLTLSKADYEKHKVYACEVTHQGLSSPVTKSFNRGEC
notes: also called anti-B7-H3/EGFR bispecific antibody
The molecule B3 displayed a Kd in assay [1] of 2.48 nM. In assay [2], this molecule gave a Kd of 4.59 nM. The “IC50(nM), proliferation inhibition, H1650 cells” value in assay [3] was 4.86 nM. In addition, the “IC50(nM), proliferation inhibition, H1975 cells” value in assay [4] stood at 0.99 nM. Besides, in assay [5], the “IC50(nM), proliferation inhibition, HT-55 cells” value is 0.14 nM and the “IC50(nM), proliferation inhibition, LS180 cells” value came to 1.33 nM. Moreover, the “IC50(nM), proliferation inhibition, CCK-81 cells” value in assay [6] was 0.24 nM. In assay [7], the “IC50(nM), proliferation inhibition, Colo-680N cells” value is 12.3 nM; the “IC50(nM), proliferation inhibition, H292 cells” value was determined as 57.8 nM; the “IC50(nM), proliferation inhibition, H508 cells” value was 1.08 nM; the “IC50(nM), proliferation inhibition, SK-MES-1 cells (EGFR amplification)” value is 0.4 nM. The “IC50(nM), proliferation inhibition, TE-1 cells” value in assay [7] came to 16 nM.

Broadly, the Kd is the equilibrium constant for the complex coming apart. The low end stands for a tighter complex, the high end for a looser complex. By koff is commonly meant a measure of how fast the partners let go of each other. Low values mean slow dissociation, high ones fast dissociation. What is called kon is the second-order rate constant of association.

Source of the values: patent US20250381269A1 (FORTVITA BIOLOGICS SINGAPORE PTE, published 2025).
